To fix the notation:
B1: CE115HA000 H chain altered form N53Y (antibody, human IgG1, kappa, L234A L235A, N297A, name in Kabat numbering)
heavy: QVQLVESGGGVVQPGRSLRLSCAASGFTFSNAWMHWVRQAPGKGLEWVAQIKAKSYNYATYYAESVKGRFTISRDDSKNSLYLQMNSLKTEDTAVYYCRYVHYGAYYGVDAWGQGTTVTVSSASTKGPSVFPLAPSSKSTSGGTAALGCLVKDYFPEPVTVSWNSGALTSGVHTFPAVLQSSGLYSLSSVVTVPSSSLGTQTYICNVNHKPSNTKVDKKVEPKSCDKTHTCPPCPAPEAAGGPSVFLFPPKPKDTLMISRTPEVTCVVVDVSHEDPEVKFNWYVDGVEVHNAKTKPREEQYASTYRVVSVLTVLHQDWLNGKEYKCKVSNKALPAPIEKTISKAKGQPREPQVYTLPPSRCELTKNQVSLSCAVKGFYPSDIAVEWESNGQPENNYKTTPPVLDSDGSFFLVSKLTVDKSRWQQGNVFSCSVMHEALHNHYTQKSLSLSPDYKDDDDK
chain: EPKSSDKTHTCPPCPAPELLGGPSVFLFPPKPKDTLMISRTPEVTCVVVDVSHEDPEVKFNWYVDGVEVHNAKTKPREEQYNSTYRVVSVLTVLHQDWLNGKEYKCKVSNKALPAPIEKTISKAKGQPREPQVCTLPPSRDELTKNQVSLWCLVKGFYPSDIAVEWESNGQPENNYKTTPPVLDSDGSFFLYSKLTVDKSRWQQGNVFSCSVMHEALHNRYTQKSLSLSP
light: DIVMTQSPLSLPVTPGEPASISCRSSQSLVHSNRNTYLHWYQQKPGQAPRLLIYKVSNRFSGVPDRFSGSGSGTDFTLKISRVEAEDVGVYYCGQGTQVPYTFGQGTKLEIKRTVAAPSVFIFPPSDEQLKSGTASVVCLLNNFYPREAKVQWKVDNALQSGNSQESVTEQDSKDSTYSLSSTLTLSKADYEKHKVYACEVTHQGLSSPVTKSFNRGEC
notes: one-arm antibody
B2: CE115HA000 H chain altered form S52cV (antibody, human IgG1, kappa, L234A L235A, N297A, name in Kabat numbering)
heavy: B1 heavy with S55V, Y56N
chain: B1 chain
light: B1 light
notes: one-arm antibody
B3: CE115HA000 H chain altered form S52cA (antibody, human IgG1, kappa, L234A L235A, N297A, name in Kabat numbering)
heavy: B1 heavy with S55A, Y56N
chain: B1 chain
light: B1 light
notes: one-arm antibody
B4: CE115HA000 H chain altered form Q50D (antibody, human IgG1, kappa, L234A L235A, N297A, name in Kabat numbering)
heavy: B1 heavy with Q50D, Y56N
chain: B1 chain
light: B1 light
notes: one-arm antibody
B5: CE115HA000 H chain altered form N54G (antibody, human IgG1, kappa, L234A L235A, N297A, name in Kabat numbering)
heavy: B1 heavy with Y56N, N57G
chain: B1 chain
light: B1 light
notes: one-arm antibody
B6: CE115HA000 H chain altered form N54L (antibody, human IgG1, kappa, L234A L235A, N297A, name in Kabat numbering)
heavy: B1 heavy with Y56N, N57L
chain: B1 chain
light: B1 light
notes: one-arm antibody
B7: CE115HA000 H chain altered form N54D (antibody, human IgG1, kappa, L234A L235A, N297A, name in Kabat numbering)
heavy: B1 heavy with Y56N, N57D
chain: B1 chain
light: B1 light
notes: one-arm antibody
B8: CE115HA000 H chain altered form N54A (antibody, human IgG1, kappa, L234A L235A, N297A, name in Kabat numbering)
heavy: B1 heavy with Y56N, N57A
chain: B1 chain
light: B1 light
notes: one-arm antibody
B9: CE115HA000 H chain altered form Q50L (antibody, human IgG1, kappa, L234A L235A, N297A, name in Kabat numbering)
heavy: B1 heavy with Q50L, Y56N
chain: B1 chain
light: B1 light
notes: one-arm antibody
B10: CE115HA000 H chain altered form R19T (antibody, human IgG1, kappa, L234A L235A, N297A, name in Kabat numbering)
heavy: B1 heavy with R19T, Y56N
chain: B1 chain
light: B1 light
notes: one-arm antibody
B11: CE115HA000 H chain altered form R16E (antibody, human IgG1, kappa, L234A L235A, N297A, name in Kabat numbering)
heavy: B1 heavy with R16E, Y56N
chain: B1 chain
light: B1 light
notes: one-arm antibody
B12: CE115HA000 H chain altered form S52cL (antibody, human IgG1, kappa, L234A L235A, N297A, name in Kabat numbering)
heavy: B1 heavy with S55L, Y56N
chain: B1 chain
light: B1 light
notes: one-arm antibody
B13: CE115HA000 H chain altered form Q50I (antibody, human IgG1, kappa, L234A L235A, N297A, name in Kabat numbering)
heavy: B1 heavy with Q50I, Y56N
chain: B1 chain
light: B1 light
notes: one-arm antibody
B14: CE115HA000 H chain altered form N54Q (antibody, human IgG1, kappa, L234A L235A, N297A, name in Kabat numbering)
heavy: B1 heavy with Y56N, N57Q
chain: B1 chain
light: B1 light
notes: one-arm antibody
B15: CE115HA000 H chain altered form Q50A (antibody, human IgG1, kappa, L234A L235A, N297A, name in Kabat numbering)
heavy: B1 heavy with Q50A, Y56N
chain: B1 chain
light: B1 light
notes: one-arm antibody
B16: CE115HA000 H chain altered form S30G (antibody, human IgG1, kappa, L234A L235A, N297A, name in Kabat numbering)
heavy: B1 heavy with S30G, Y56N
chain: B1 chain
light: B1 light
notes: one-arm antibody
B17: CE115HA000 H chain altered form S52cF (antibody, human IgG1, kappa, L234A L235A, N297A, name in Kabat numbering)
heavy: B1 heavy with S55F, Y56N
chain: B1 chain
light: B1 light
notes: one-arm antibody
B18: CE115HA000 H chain altered form S30D (antibody, human IgG1, kappa, L234A L235A, N297A, name in Kabat numbering)
heavy: B1 heavy with S30D, Y56N
chain: B1 chain
light: B1 light
notes: one-arm antibody
B19: CE115HA000 H chain altered form Q50S (antibody, human IgG1, kappa, L234A L235A, N297A, name in Kabat numbering)
heavy: B1 heavy with Q50S, Y56N
chain: B1 chain
light: B1 light
notes: one-arm antibody
B20: CE115HA000 H chain altered form Q50K (antibody, human IgG1, kappa, L234A L235A, N297A, name in Kabat numbering)
heavy: B1 heavy with Q50K, Y56N
chain: B1 chain
light: B1 light
notes: one-arm antibody
B21: CE115HA000 H chain altered form Q50E (antibody, human IgG1, kappa, L234A L235A, N297A, name in Kabat numbering)
heavy: B1 heavy with Q50E, Y56N
chain: B1 chain
light: B1 light
notes: one-arm antibody
B22: CE115HA000 H chain altered form Q50Y (antibody, human IgG1, kappa, L234A L235A, N297A, name in Kabat numbering)
heavy: B1 heavy with Q50Y, Y56N
chain: B1 chain
light: B1 light
notes: one-arm antibody
B23: CE115HA000 H chain altered form S52cG (antibody, human IgG1, kappa, L234A L235A, N297A, name in Kabat numbering)
heavy: B1 heavy with S55G, Y56N
chain: B1 chain
light: B1 light
notes: one-arm antibody
B24: CE115HA000 H chain altered form R16Q (antibody, human IgG1, kappa, L234A L235A, N297A, name in Kabat numbering)
heavy: B1 heavy with R16Q, Y56N
chain: B1 chain
light: B1 light
notes: one-arm antibody
B25: CE115HA000 H chain altered form S52cK (antibody, human IgG1, kappa, L234A L235A, N297A, name in Kabat numbering)
heavy: B1 heavy with S55K, Y56N
chain: B1 chain
light: B1 light
notes: one-arm antibody
B26: CE115HA000 H chain altered form S52cY (antibody, human IgG1, kappa, L234A L235A, N297A, name in Kabat numbering)
heavy: B1 heavy with S55Y, Y56N
chain: B1 chain
light: B1 light
notes: one-arm antibody
B27: CE115HA000 H chain altered form N54S (antibody, human IgG1, kappa, L234A L235A, N297A, name in Kabat numbering)
heavy: B1 heavy with Y56N, N57S
chain: B1 chain
light: B1 light
notes: one-arm antibody
B28: CE115HA000 H chain altered form N54K (antibody, human IgG1, kappa, L234A L235A, N297A, name in Kabat numbering)
heavy: B1 heavy with Y56N, N57K
chain: B1 chain
light: B1 light
notes: one-arm antibody
B29: CE115HA000 H chain altered form N54Y (antibody, human IgG1, kappa, L234A L235A, N297A, name in Kabat numbering)
heavy: B1 heavy with Y56N, N57Y
chain: B1 chain
light: B1 light
notes: one-arm antibody
B30: CE115HA000 H chain altered form S52cQ (antibody, human IgG1, kappa, L234A L235A, N297A, name in Kabat numbering)
heavy: B1 heavy with S55Q, Y56N
chain: B1 chain
light: B1 light
notes: one-arm antibody
B31: CE115HA000 H chain altered form N54F (antibody, human IgG1, kappa, L234A L235A, N297A, name in Kabat numbering)
heavy: B1 heavy with Y56N, N57F
chain: B1 chain
light: B1 light
notes: one-arm antibody
B32: CE115HA000 H chain altered form S52cD (antibody, human IgG1, kappa, L234A L235A, N297A, name in Kabat numbering)
heavy: B1 heavy with S55D, Y56N
chain: B1 chain
light: B1 light
notes: one-arm antibody

The values below come from patent publication US20240270846A1 (published 2024).

Residue numbers refer to the chain shown, from its start.

In this assay the target is T1, CD3 epsilon homodimer protein (UniProt P07766 23-126).
T1 construct: also called CD3 (CD3 epsilon)
T1 sequence (P07766 23-126): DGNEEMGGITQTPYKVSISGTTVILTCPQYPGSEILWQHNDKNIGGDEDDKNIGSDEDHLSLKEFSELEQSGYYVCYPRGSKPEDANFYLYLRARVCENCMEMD
Description: SPR Biacore T200, CD3 epsilon homodimer on chip, antibody as analyte.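 Further: homodimer amine-coupled to a CM4 sensor chip, run at 25 °C in HBS-EP+ buffer, with kinetic parameters derived in Biacore T200 Evaluation Software.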 In general terms: SPR reads the build-up and loss of mass on a sensor chip optically.
Description: An appropriate amount of CD3 epsilon homodimer protein was immobilized onto Sensor chip CM4 (GE Healthcare Japan Corp.) by the amine coupling method. Then, the antibody having an appropriate concentration was injected thereto as an analyte and allowed to interact with the CD3 epsilon homodimer protein on the sensor chip. Then, the sensor chip was regenerated by the injection of 10 mmol/L glycine-HCl (pH 1.5). The assay was conducted at 25 degrees C., and HBS-EP+(GE Healthcare Japan Corp.) was used as a running buffer. […] Each parameter was calculated using Biacore T200 Evaluation Software (GE Healthcare Japan Corp.).
Specifically, when the amount of the antibody comprising CE115HA000 bound was defined as X and the amount of the H chain one-amino acid altered form bound was defined as Y, a value of Z (ratio of amounts bound)=Y/X was used.
As to B1, the “KD ratio (KD of CE115HA000 / KD of altered form)” value came to 0.94.
Then B2, with 0.82.
As for B3, the “KD ratio (KD of CE115HA000 / KD of altered form)” value stood at 0.67.
Turning to B4, the “KD ratio (KD of CE115HA000 / KD of altered form)” value was determined as 75.4.
Then B5, with 0.84; and B6, with 0.91.
Then B7, with 0.59; and B8, with 0.58.
Then B9, with 1.41; and B10, with 0.81.
With B11, the “KD ratio (KD of CE115HA000 / KD of altered form)” value worked out at 0.74.
For B12, the “KD ratio (KD of CE115HA000 / KD of altered form)” value was found to be 0.94.
For B13 the value was 1.21.
For B14 the value was 0.8; for B15, 22.6; for B16, 0.93.
As for B17, the “KD ratio (KD of CE115HA000 / KD of altered form)” value amounted to 0.93.
Take B18: the “KD ratio (KD of CE115HA000 / KD of altered form)” value was 0.79.
Then B19, with 47.4.
Then B20, with 0.71.
For B21 the value was 16700; for B22, 49.1; for B23, 0.81.
With B24, the “KD ratio (KD of CE115HA000 / KD of altered form)” value amounted to 0.87.
With B25, the “KD ratio (KD of CE115HA000 / KD of altered form)” value is 0.88.
For B26 the value was 0.87; for B27, 0.57.
As to B28, the “KD ratio (KD of CE115HA000 / KD of altered form)” value worked out at 0.82.
As to B29, the “KD ratio (KD of CE115HA000 / KD of altered form)” value amounted to 1.03.
For B30 the value was 0.97; for B31, 0.97.
For B32 the value was 0.55.
